Source: patent US20200087416A1 (Innovent, published 2020)

Key:
[1] = biological target: T1, human PCSK9 (PCSK9 antigen, SEQ ID NO. 53) (human, UniProt A8T644 31-152; Q8NBP7 153-692, Biotin-labelled on amines in the MSD-SET and sorting experiments; positions not given.); assay: cell-based or functional assay
[2] = biological target: T2, murine PCSK-9 (murine, UniProt Q80W65 35-694); assay: BLI (ForteBio), IgG on AHQ sensor, 100 nM antigen
T2 construct: also called mouse PCSK9

[3] = biological target: T1, human PCSK9 (PCSK9 antigen, SEQ ID NO. …); assay: BLI (ForteBio), IgG on AHQ sensor, 100 nM antigen
[4] = biological target: T2, murine PCSK-9; assay: MSD-SET, Fab with biotin-PCSK9 in solution, IgG on plate, pH 7.4
[5] = biological target: T1, human PCSK9 (PCSK9 antigen, SEQ ID NO. …); assay: as above
[6] = biological target: T1, human PCSK9 (PCSK9 antigen, SEQ ID NO. …); assay: MSD-SET, Fab with biotin-PCSK9 in solution, IgG on plate, pH 6.0
[7] = biological target: T1, human PCSK9 (PCSK9 antigen, SEQ ID NO. …); assay: flow cytometry, PCSK9 left on CHO-LDLR cells (anti-His-FITC) after premix with 0.1 nM antibody
[8] = biological target: T1, human PCSK9 (PCSK9 antigen, SEQ ID NO. …); assay: flow cytometry, PCSK9 left on CHO-LDLR cells (anti-His-FITC) after premix with 10 nM antibody
[9] = biological target: T1, human PCSK9 (PCSK9 antigen, SEQ ID NO. …); assay: flow cytometry, PCSK9 left on CHO-LDLR cells (anti-His-FITC) after premix with 1000 nM antibody
[10] = biological target: T1, human PCSK9 (PCSK9 antigen, SEQ ID NO. …); assay: flow cytometry, PCSK9 left on CHO-LDLR cells (anti-His-FITC) after premix with 100 nM antibody
[11] = biological target: T1, human PCSK9 (PCSK9 antigen, SEQ ID NO. …); assay: flow cytometry, PCSK9 left on CHO-LDLR cells (anti-His-FITC) after premix with 1 nM antibody

B1: ADI-02396 (antibody, human IgG2, kappa, V domains shown)
VH: QLQLQESGPGLVKPSETLSLTCTVSGGSISSSSYYWGWIRQPPGKGLEWIGSIYYSGSTYYNPSLKSRVTISVDTSKNQFSLKLSSVTAADTAVYYCAREGSGVVPAAGPNWFDPWGQGTLVTVSS
VL: EIVLTQSPATLSLSPGERATLSCRASQSVSSYLAWYQQKPGQAPRLLIYDASNRATGIPARFSGSGSGTDFTLTISSLEPEDFAVYYCQQRRNWFTFGGGTKVEIKR
notes: IgG; also called parent antibody
- BODIPY-LDL uptake by HepG2 cells, fluorescence, 4.2 nM, replicate 1 [1]: 0.366
- BODIPY-LDL uptake by HepG2 cells, fluorescence, 4.2 nM, replicate 2 [1]: 0.352
- BODIPY-LDL uptake by HepG2 cells, fluorescence, 16.8 nM, replicate 1 [1]: 0.404
- BODIPY-LDL uptake by HepG2 cells, fluorescence, 16.8 nM, replicate 2 [1]: 0.341
- BODIPY-LDL uptake by HepG2 cells, fluorescence, 66.7 nM, replicate 1 [1]: 0.432
- BODIPY-LDL uptake by HepG2 cells, fluorescence, 66.7 nM, replicate 2 [1]: 0.401
- Kd [2]: 78.3 nM
- Kd [3]: 9.5 nM

B2: ADI-10088 Fab (Fab, V domains shown)
VH: QLQLQESGPGLVKPSETLSLTCTVSGGSIGSSSYYWAWIRQPPGKGLEWIGSINYRGSTYYNPSLKSRVTISVDTSKNQFSLKLSSVTAADTAVYYCARENSGVVPAAGPNWFDPWGQGTLVTVSS
VL: EIVLTQSPATLSLSPGERATLSCRASQSVSSYLAWYQQKPGQAPRLLIYDASNRATGIPARFSGSGSGTDFTLTISSLEPEDFAVYYCQQRRNWFTFGGGTKVEIKR
- Kd [4]: 0.087 nM
- Kd [5]: 0.01 nM
- Kd [6]: 0.016 nM

B3: ADI-09112 Fab (Fab, V domains shown)
VH: QLQLQESGPGLVKPSETLSLTCTVSGGSISSSSYYWGWIRQPPGKGLEWIGSIYYSGSTYYNPFLKSRVTISVDTSKNQFSLKLSSVTAADTAVYYCARENSGVVPAAGPNWFGPWGQGTLVTVSS
VL: EIVLTQSPATLSLSPGERATLSCRASQSVSSYLAWYQQKPGQAPRLLIYDASNRATGIPARFSGSGSGTDFTLTISSLEPEDFAVYYCQQRRNWFTFGGGTKVEIKR
- Kd [4]: 1.2 nM
- Kd [5]: 0.22 nM

B4: ADI-10086 (antibody, human IgG2, kappa, V domains shown)
VH: QLQLQESGPGLVKPSETLSLTCTVSGGSIRSSAYYWGWIRQPPGKGLEWIGSINYRGSTYYNPSLKSRVTISVDTSKNQFSLKLSSVTAADTAVYYCARENSGVVPAAGPNWFGPWGQGTLVTVSS
VL: EIVLTQSPATLSLSPGERATLSCRASQSVSSYLAWYQQKPGQAPRLLIYDASNRATGIPARFSGSGSGTDFTLTISSLEPEDFAVYYCQQRRNWFTFGGGTKVEIKR
notes: IgG
- Fluorescence Signal Value [7]: 6600
- Kd [2]: 0.607 nM
- Kd [3]: 0.336 nM
- Fluorescence Signal Value [8]: 5830
- Fluorescence Signal Value [9]: 5270
- Fluorescence Signal Value [10]: 5130
- Fluorescence Signal Value [11]: 6920

B5: ADI-09113 Fab (Fab, V domains shown)
VH: QLQLQESGPGLVKPSETLSLTCTVSGGSVSSSSYYWGWIRQPPGKGLEWIGSAYYSGSTYYNPSLKSRVTISVDTSKNQFSLKLSSVTAADTAVYYCARENSGVVPAAGPNWFDPWGQGTLVTVSS
VL: EIVLTQSPATLSLSPGERATLSCRASQSVSSYLAWYQQKPGQAPRLLIYDASNRATGIPARFSGSGSGTDFTLTISSLEPEDFAVYYCQQRRNWFTFGGGTKVEIKR
- Kd [4]: 0.76 nM
- Kd [5]: 0.17 nM
- Kd [6]: 0.65 nM

B6: ADI-10090 (antibody, human IgG2, kappa, V domains shown)
VH: QLQLQESGPGLVKPSETLSLTCTVSGGSIWSSSYYWTWIRQPPGKGLEWIGSINYRGSTYYNPSLKSRVTISVDTSKNQFSLKLSSVTAADTAVYYCARENSGVVPAAGPNWFDPWGQGTLVTVSS
VL: EIVLTQSPATLSLSPGERATLSCRASQSVSSYLAWYQQKPGQAPRLLIYDASNRATGIPARFSGSGSGTDFTLTISSLEPEDFAVYYCQQRRNWFTFGGGTKVEIKR
notes: IgG
- Fluorescence Signal Value [7]: 6810
- Kd [2]: 0.674 nM
- Kd [3]: 0.352 nM
- Fluorescence Signal Value [8]: 5810
- Fluorescence Signal Value [9]: 4820
- Fluorescence Signal Value [10]: 4810
- Fluorescence Signal Value [11]: 6750

B7: ADI-09111 Fab (Fab, V domains shown)
VH: QLQLQESGPGLVKPSETLSLTCTVSGGSISSSSYYWGWIRQPPGKGLEWIGSIYYSGSTYYNPSLKSRVTISVDTSKNQFSLKLSSVTAADTAVYYCARENSGVVPAAGPNWFDPWGQGTLVTVSS
VL: EIVLTQSPATLSLSPGERATLSCRASQSVSSYLAWYQQKPGQAPRLLIYDASNRATGIPARFSGSGSGTDFTLTISSLEPEDFAVYYCQQRRNWFTFGGGTKVEIKR
- Kd [4]: 3.5 nM
- Kd [5]: 0.7 nM
- Kd [6]: 1.9 nM

B8: Alirocumab (antibody, V domains shown)
VH: EVQLVESGGGLVQPGGSLRLSCAASGFTFNNYAMNWVRQAPGKGLDWVSTISGSGGTTNYADSVKGRFIISRDSSKHTLYLQMNSLRAEDTAVYYCAKDSNWGNFDLWGRGTLVTVSS
VL: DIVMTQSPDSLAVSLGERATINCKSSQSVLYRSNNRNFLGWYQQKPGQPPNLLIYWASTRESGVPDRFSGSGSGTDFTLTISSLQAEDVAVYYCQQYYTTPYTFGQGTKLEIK
- Fluorescence Signal Value [7]: 7170
- BODIPY-LDL uptake by HepG2 cells, fluorescence, 4.2 nM, replicate 1 [1]: 0.364
- BODIPY-LDL uptake by HepG2 cells, fluorescence, 4.2 nM, replicate 2 [1]: 0.37
- BODIPY-LDL uptake by HepG2 cells, fluorescence, 16.8 nM, replicate 1 [1]: 0.396
- BODIPY-LDL uptake by HepG2 cells, fluorescence, 16.8 nM, replicate 2 [1]: 0.392
- BODIPY-LDL uptake by HepG2 cells, fluorescence, 66.7 nM, replicate 1 [1]: 0.686
- BODIPY-LDL uptake by HepG2 cells, fluorescence, 66.7 nM, replicate 2 [1]: 0.716
- Kd [2]: 2.66 nM
- Kd [3]: 0.0301 nM
- Fluorescence Signal Value [8]: 5750
- Fluorescence Signal Value [9]: 4930
- Fluorescence Signal Value [10]: 4950
- Fluorescence Signal Value [11]: 6980

B9: Evolocumab (antibody, V domains shown)
VH: QVQLVQSGAEVKKPGASVKVSCKASGYTLTSYGISWVRQAPGQGLEWMGWVSFYNGNTNYAQKLQGRGTMTTDPSTSTAYMELRSLRSDDTAVYYCARGYGMDVWGQGTTVTVSS
VL: QSALTQPASVSGSPGQSITISCTGTSSDVGGYNSVSWYQQHPGKAPKLMIYEVSNRPSGVSNRFSGSKSGNTASLTISGLQAEDEADYYCNSYTSTSMVFGGGTKLTVL
- Fluorescence Signal Value [7]: 6990
- BODIPY-LDL uptake by HepG2 cells, fluorescence, 4.2 nM, replicate 1 [1]: 0.351
- BODIPY-LDL uptake by HepG2 cells, fluorescence, 4.2 nM, replicate 2 [1]: 0.36
- BODIPY-LDL uptake by HepG2 cells, fluorescence, 16.8 nM, replicate 1 [1]: 0.355
- BODIPY-LDL uptake by HepG2 cells, fluorescence, 16.8 nM, replicate 2 [1]: 0.363
- BODIPY-LDL uptake by HepG2 cells, fluorescence, 66.7 nM, replicate 1 [1]: 0.724
- BODIPY-LDL uptake by HepG2 cells, fluorescence, 66.7 nM, replicate 2 [1]: 0.778
- Kd [2]: 114 nM
- Kd [3]: 1.03 nM
- Fluorescence Signal Value [8]: 5780
- Fluorescence Signal Value [9]: 4800
- Fluorescence Signal Value [10]: 5100
- Fluorescence Signal Value [11]: 6810

B10: Lodelcizumab (antibody, V domains shown)
VH: QVQLVQSGAEVKKPGASVKVSCKASGYTFSTMYMSWVRQAPGQGLEWMGRIDPANEHTNYAQKFQGRVTMTRDTSISTAYMELSRLTSDDTAVYYCARSYYYYNMDYWGQGTLVTVSS
VL: QIVLTQSPATLSVSPGERATLSCRASQSVSYMHWYQQKPGQAPRLLIYGVFRRATGIPDRFSGSGSGTDFTLTIGRLEPEDFAVYYCLQWSSDPPTFGQGTKLEIK
- Fluorescence Signal Value [7]: 8400
- BODIPY-LDL uptake by HepG2 cells, fluorescence, 4.2 nM, replicate 1 [1]: 0.318
- BODIPY-LDL uptake by HepG2 cells, fluorescence, 4.2 nM, replicate 2 [1]: 0.352
- BODIPY-LDL uptake by HepG2 cells, fluorescence, 16.8 nM, replicate 1 [1]: 0.317
- BODIPY-LDL uptake by HepG2 cells, fluorescence, 16.8 nM, replicate 2 [1]: 0.314
- BODIPY-LDL uptake by HepG2 cells, fluorescence, 66.7 nM, replicate 1 [1]: 0.33
- BODIPY-LDL uptake by HepG2 cells, fluorescence, 66.7 nM, replicate 2 [1]: 0.312
- Kd [3]: 1.51 nM
- Fluorescence Signal Value [8]: 7330
- Fluorescence Signal Value [9]: 7330
- Fluorescence Signal Value [10]: 8760
- Fluorescence Signal Value [11]: 8760

B11: Bococizumab (antibody, V domains shown)
VH: QVQLVQSGAEVKKPGASVKVSCKASGYTFTSYYMHWVRQAPGQGLEWMGEISPFGGRTNYNEKFKSRVTMTRDTSTSTVYMELSSLRSEDTAVYYCARERPLYASDLWGQGTTVTVSS
VL: DIQMTQSPSSLSASVGDRVTITCRASQGISSALAWYQQKPGKAPKLLIYSASYRYTGVPSRFSGSGSGTDFTFTISSLQPEDIATYYCQQRYSLWRTFGQGTKLEIK
- Fluorescence Signal Value [7]: 7100
- Kd [2]: 0.663 nM
- Kd [3]: 0.386 nM
- Fluorescence Signal Value [8]: 6270
- Fluorescence Signal Value [9]: 6040
- Fluorescence Signal Value [10]: 5310
- Fluorescence Signal Value [11]: 6960
